{"source": "patent US11246958B2", "about": "“Haemostatic compositions” (HAEMOSTATIX LIMITED, priority 2015, dated 2022)", "key": {"[1]": {"target": "T1, purified human fibrinogen (Homo sapiens, UniProt P02675+P02679)", "T1 sequence (P02679 27-437 isoform P02679-2 limits assumed)": "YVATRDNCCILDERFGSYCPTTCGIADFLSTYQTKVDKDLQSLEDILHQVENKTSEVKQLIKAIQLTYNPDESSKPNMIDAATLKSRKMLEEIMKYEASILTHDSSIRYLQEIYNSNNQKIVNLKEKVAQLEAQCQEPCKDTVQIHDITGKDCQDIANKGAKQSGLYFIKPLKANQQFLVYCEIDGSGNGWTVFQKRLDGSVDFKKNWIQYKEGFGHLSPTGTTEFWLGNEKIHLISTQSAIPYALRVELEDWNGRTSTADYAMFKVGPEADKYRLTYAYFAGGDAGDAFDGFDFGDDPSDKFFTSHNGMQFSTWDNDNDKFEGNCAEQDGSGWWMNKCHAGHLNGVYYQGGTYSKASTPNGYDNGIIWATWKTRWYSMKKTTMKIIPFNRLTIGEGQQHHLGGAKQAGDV", "T1 sequence (P02675 31-491)": "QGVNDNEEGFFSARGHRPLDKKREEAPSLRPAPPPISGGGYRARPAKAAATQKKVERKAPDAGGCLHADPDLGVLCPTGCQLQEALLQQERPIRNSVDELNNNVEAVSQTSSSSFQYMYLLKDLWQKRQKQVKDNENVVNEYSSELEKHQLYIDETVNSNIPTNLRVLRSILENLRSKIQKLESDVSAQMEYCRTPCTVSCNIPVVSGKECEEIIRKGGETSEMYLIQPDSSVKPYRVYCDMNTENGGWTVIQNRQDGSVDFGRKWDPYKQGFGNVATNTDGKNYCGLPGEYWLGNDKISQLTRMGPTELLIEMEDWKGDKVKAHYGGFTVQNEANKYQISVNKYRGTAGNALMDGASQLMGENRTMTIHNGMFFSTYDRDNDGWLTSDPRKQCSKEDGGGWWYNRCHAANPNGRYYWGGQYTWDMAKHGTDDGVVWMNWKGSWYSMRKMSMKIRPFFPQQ", "T1 sequence (P02671 20-629 partner limits assumed)": "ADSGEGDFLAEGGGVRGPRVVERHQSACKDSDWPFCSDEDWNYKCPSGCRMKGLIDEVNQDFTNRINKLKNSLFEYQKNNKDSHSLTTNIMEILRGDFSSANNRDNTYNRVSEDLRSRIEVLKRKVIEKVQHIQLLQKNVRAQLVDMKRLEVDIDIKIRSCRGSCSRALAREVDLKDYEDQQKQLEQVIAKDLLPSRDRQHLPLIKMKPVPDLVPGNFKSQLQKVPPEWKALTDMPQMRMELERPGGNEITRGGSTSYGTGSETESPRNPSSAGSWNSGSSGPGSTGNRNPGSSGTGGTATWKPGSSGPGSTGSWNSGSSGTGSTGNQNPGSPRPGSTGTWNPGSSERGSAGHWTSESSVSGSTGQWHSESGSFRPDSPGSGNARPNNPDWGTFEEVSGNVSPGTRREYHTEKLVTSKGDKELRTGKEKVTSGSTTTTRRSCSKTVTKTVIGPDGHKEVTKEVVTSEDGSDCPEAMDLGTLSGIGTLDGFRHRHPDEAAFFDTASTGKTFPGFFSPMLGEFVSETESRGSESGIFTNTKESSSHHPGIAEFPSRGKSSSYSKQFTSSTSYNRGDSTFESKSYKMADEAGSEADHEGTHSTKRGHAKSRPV", "test": "Copolymerisation of peptide dendrimers with purified human fibrinogen, clotting time on KC4 Delta coagulation analyser", "assay_type": "biochemical", "details": "for activity of mixtures of peptide conjugate and peptide dendrimer in copolymerising with fibrinogen: conjugate 2 mg/ml mixed with Peptide Dendrimer No. 3 or 4 at 0.025-0.5 mg/ml", "experimental": "The ability of Peptide Dendrimer No. 12 to polymerise fibrinogen was assessed. 30 μl of dendrimer in solution, at concentration ranging from 0.005-2 mg/ml, was added to 100 μl purified human fibrinogen at 3 mg/ml (the level of fibrinogen found in the blood). Polymerisation of fibrinogen was analysed using a Sigma Amelung KC4 Delta coagulation analyser.\nThe ability of Peptide Dendrimer Nos. 4, 5, 10, 11, and 12 to copolymerise with fibrinogen was assessed using the same method described in Example 2. The concentration of each dendrimer was varied from 0.005-0.5 mg/ml.\nThe ability of the dendrimers to copolymerise with fibrinogen was assessed using the same method described in Example 2, for a concentration of each dendrimer ranging from 0.005-0.5 mg/ml.\nPeptide Conjugate No. 1 or 2 (2 mg/ml) was mixed with Peptide Dendrimer No. 3 or 4, and fibrinogen, and the ability of the mixtures to copolymerise with fibrinogen was assessed using the same method described in Example 2, for a concentration of each dendrimer ranging from 0.025-0.5 mg/ml."}, "[2]": {"target": "T2, fibrinogen in human plasma (Homo sapiens, UniProt P02675+P02679)", "T2 construct": "from tissue; host or cells: human plasma", "T2 sequence (P02679 27-437 isoform P02679-2 limits assumed)": "T1 sequence (P02679 27-437 isoform P02679-2 limits assumed)", "T2 sequence (P02675 31-491)": "T1 sequence (P02675 31-491)", "T2 sequence (P02671 20-629 partner limits assumed)": "T1 sequence (P02671 20-629 partner limits assumed)", "test": "Polymerisation of fibrinogen in human plasma by peptide dendrimers", "assay_type": "biochemical", "details": "30 μL dendrimer 0.25 mg/ml in 100 μL human plasma, 37° C.", "experimental": "30 μL of each dendrimer (at a concentration of 0.25 mg/ml) was added to 100 μL human plasma at 37° C., and polymerisation of fibrinogen was determined using a Sigma Amelung KC4 Delta coagulation analyzer."}}, "note": "Where no end group is shown, it is not given here."}
{"substance": "Peptide Dendrimer No. 9: three-branch dendrimer, two GPRPFPA peptides and one APFPRPG attached by its amino-terminal end, carboxy-terminal amide (chain 2 APFPRPG-NH2; not fully specified; also: three-branch dendrimer: two GPRPFPA and one APFPRPG attached by amino-terminal end; listed as Homo sapiens)", "values": [{"measurement": "ability to copolymerise with fibrinogen", "setting": "[1]; dendrimer 0.005-0.5 mg/ml, fibrinogen 3 mg/ml", "result": "very active in copolymerising with fibrinogen"}, {"measurement": "ability to polymerise fibrinogen in human plasma", "setting": "[2]", "result": "not able to polymerise fibrinogen in human plasma"}]}
{"substance": "Peptide Conjugate No. 2: GHRPY peptide and reverse sequence YPRHG (amidated), each attached by a linker to a lysine residue (peptide 2 YPRHG-NH2; also: each peptide attached by a linker to a lysine residue)", "values": [{"measurement": "activity of mixtures of peptide conjugate and peptide dendrimer in copolymerising with fibrinogen", "setting": "[1]", "result": "synergistic and increased activity"}]}
{"substance": "Peptide Conjugate No. 1: two GPRP fibrinogen-binding peptides each attached by a linker to a lysine residue, second attached by amino-terminal end and amidated (peptide 2 GPRP-NH2; also: each GPRP attached by a linker to a lysine residue, second attached by amino-terminal end)", "values": [{"measurement": "activity of mixtures of peptide conjugate and peptide dendrimer in copolymerising with fibrinogen", "setting": "[1]", "result": "not active"}]}
